Assay results published in patent US20190345535.
Where “and” joins values, the source holds several entries; their conditions need not be identical. Identical values can stand only once.

Legend:
[1] = test system: GFP^2-Pflu3-RLuc2 fusion protein (Pflu sensor 3)
[2] = test system: GFP^2-plas1-RLuc2 fusion protein (BRET^2 plasmin sensor)
[3] = test system: GFP^2-Pflu-H4-RLuc2 fusion protein
[4] = test system: GFP^2-Pflu-H2-RLuc2 fusion protein
[5] = test system: GFP^2-Pflu2-RLuc2 fusion protein (Pflu sensor 2)
[6] = test system: GFP^2-Pflu-H3-RLuc2 fusion protein
[7] = test system: GFP^2-Pflu-H1-RLuc2 fusion protein
[8] = test system: GFP^2-Pflu1-RLuc2 fusion protein (Pflu sensor 1)

## crude bacterial protease from Pseudomonas fluorescens strain 65
[1]
  Selectivity for bacterial protease over human plasmin: 563 fold
  Selectivity for bacterial protease over human plasmin, protease concentration by BSA standard: 48.5 fold
[2]
  Linear range (10%-90% BRET^2 response), 50% full fat UHT milk: 10 nM and 90 nM
  Linear range (10%-90% BRET^2 response), 50% full fat UHT milk, protease concentration by BSA standard: 116 nM and 1040 nM
  Selectivity for bacterial protease over bovine plasmin: 2 fold
  Selectivity for bacterial protease over bovine plasmin, protease concentration by BSA standard: 0.2 fold
  Selectivity for bacterial protease over human plasmin: 0.1 fold
  Selectivity for bacterial protease over human plasmin, protease concentration by BSA standard: 0.01 fold
[3]
  BRET^2 response to 1 nM bacterial protease in buffer, 10 minutes: 64.5%
  Bacterial protease response (%), BRET^2, 1 nM in UHT milk: 17.1%
  Selectivity (ratio of Bacterial protease response to Plasmin response), UHT milk: 2.7
[4]
  BRET^2 response to 1 nM bacterial protease in buffer, 10 minutes: 31.9%
  Bacterial protease response (%), BRET^2, 1 nM in UHT milk: 6.6%
  Selectivity (ratio of Bacterial protease response to Plasmin response), UHT milk: 0.8
[5]
  Linear range (10%-90% BRET^2 response), 50% full fat UHT milk, protease concentration by BSA standard: 6.7 nM and 13.8 nM
  Selectivity for bacterial protease over human plasmin: 353 fold
  Selectivity for bacterial protease over human plasmin, protease concentration by BSA standard: 30 fold
[6]
  BRET^2 response to 1 nM bacterial protease in buffer, 10 minutes: 89.7%
  Bacterial protease response (%), BRET^2, 1 nM in UHT milk: 36.3%
  More responsive to 1 nM bacterial protease compared to Pflu H1 sensor, buffer: 82%
  More responsive to 1 nM bacterial protease compared to Pflu H2 sensor, buffer: 182%
  More responsive to 1 nM bacterial protease compared to Pflu H4 sensor, buffer: 39%
  Selectivity (ratio of Bacterial protease response to Plasmin response), UHT milk: 40.3
  Selectivity for bacterial protease over bovine plasmin, protease concentration by BSA standard: 32 fold
  Selectivity for bacterial protease over bovine plasmin, raw milk: 376 fold
[7]
  BRET^2 response to 1 nM bacterial protease in buffer, 10 minutes: 49.5%
  Bacterial protease response (%), BRET^2, 1 nM in UHT milk: 6.7%
  Selectivity (ratio of Bacterial protease response to Plasmin response), UHT milk: 1.3
[8]
  Reduction in the BRET ratio, 1 nM protease, UHT milk, 10 minutes: 80.6% reduction in the BRET ratio with strain 65 bacterial proteases
  Reduction in the BRET ratio, 1 nM protease, buffer, 10 minutes: 95% reduction in the BRET ratio
  Selectivity for bacterial protease over bovine plasmin: 238 fold
  Selectivity for bacterial protease over bovine plasmin, protease concentration by BSA standard: 20 fold
  Selectivity for bacterial protease over human plasmin: 174 fold
  Selectivity for bacterial protease over human plasmin, protease concentration by BSA standard: 15 fold
  Sensitivity to bacterial proteases relative to the plasmin sensor, raw milk, 10 minute incubation: 10× more sensitive

## crude bacterial protease from Pseudomonas fluorescens strain 117
[8]
  Reduction in the BRET ratio, 1 nM protease, UHT milk, 10 minutes: 71.2% reduction with the bacterial protease from strain 117
  Reduction in the BRET ratio, 1 nM protease, buffer, 10 minutes: 95% reduction in the BRET ratio
